According to US20100129347A1 (OSAKA UNIVERSITY, published 2010):

How the values were obtained:
[1] = biological target: T1, glycoprotein B (gB) of HSV-1 (HSV-1, UniProt P06436 30-903); test: immunoprecipitation from lysate of HSV-1-infected 293T cells, SDS-PAGE, silver stain
T1 construct: also called protein of 110 kDa; PILR-recognizing ligand

[2] = biological target: T2, FLAG-tagged extracellular region of gB (29th to 720th amino acids) with transmembrane and intracellu (HSV-1; mouse, UniProt P06436 29-720); test: flow cytometry on transfected 293T cells
T2 construct: also called cell expressing gB; cells to which gB had been transfected

B1: human CD200-Ig fusion protein (Fc fusion)
chain: QVQVVTQDEREQLYTPASLKCSLQNAQEALIVTWQKKKAVSPENMVTFSENHGVVIQPAYKDKINITQLGLQNSTITFWNITLEDEGCYMCLFNTFGFGKISGTACLTVYVQPIVSLHYKFSEDHLNITCSATARPAPMVFWKVPRSGIENSTVTLSHPNGTTSVTSILHIKDPKNQVGKEVICQVLHLGTVTDFKQTVNKG
notes: Control for PILR-Ig; also called control Ig; not shown: Ig part not described
[1]
  binding result: no binding

B2: HVEM-Ig (Fc fusion)
chain: LPSCKEDEYPVGSECCPKCSPGYRVKEACGELTGTVCEPCPPGTYIAHLNGLSKCLQCQMCDPAMGLRASRNCSRTENAVCGCSPGHFCIVQDGDHCAACRAYATSSPGQRVQKGGTESQDTLCQNCPPGTFSPNGTLEECQHQTKCSWLVTKAGAGTSSSHWV
notes: not shown: Ig part not described
[2]
  binding result: no binding
